Target: bovine thrombin (thrombin reagent) (bovine)

Row | Substance | thrombin time (TT) clotting time of human plasma with bovine thrombin; HLF1V at 0.32 and 3.2 µmol/L; expressed at 30 °C; cut-off 300 s [s] | thrombin time (TT) clotting time of human plasma with bovine thrombin; hirudin HV1 at 0.32 and 3.2 µmol/L; expressed at 30 °C; cut-off 300 s [s]
1 | recombinant hirudin-like factor HLF1V expressed in E. coli strain SHuffle T7 (natural protein) | > 300 | 
2 | recombinant hirudin HV1 expressed in E. coli strain SHuffle T7 (natural protein) |  | > 300

— publication PMC12388516
